The supplement of paper PMC9170038

Tested on: MS2 coat protein
Assay: apparent KD of MS2 coat protein; designed switch direction (-1 OFF switch, 1 ON switch): -1; higher = weaker reporter binding
Outline: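 Transcription of designed RNA switches on Illumina chips was done by stalled E. coli RNA polymerase. SNAP-549-labelled MS2 coat protein was then titrated in doubling steps from 0.7 or 1.5 nM to 3 µM, with steps of 0.8–1.5 h at the lowest and 10–20 min at the highest concentration. The per-design median over clusters of curve-fitted normalised fluorescence is reported as apparent KD.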

[1] = Eterna round: R95, input ligand: microRNA oligo, concentration not stated
[2] = Eterna round: R95, input ligand: FMN 200 uM
[3] = Eterna round: R95, input ligand: none
[4] = input ligand: microRNA oligo, concentration not stated

| Sequence | apparent KD of MS2 coat protein [1] [nM] | apparent KD of MS2 coat protein (input ligand: FMN 200 uM) [nM] | apparent KD of MS2 coat protein (input ligand: none) [nM] | also measured |
| --- | --- | --- | --- | --- |
| CCGCUAAUAGGAUAUACAUGAGGAUCACCCAUGUCACUCUUCAUUGGUGUCUCUUCAAGUAGAAGGGUUGCUCA [Atisdi] (puzzle: Exclusion 3) | 28.4 | – | – | – |
| UUCUUGCAAGGAUAUGAUUUAAGUAACAUGAGGAUCACCCAUGUUUUUCCGUUGUUAUGUUCAGAAGGUGCGUGAU [JR_E5_Sub021] (puzzle: Exclusion 5) | 54.2 | – | – | – |
| CUCGAGUUAGGAUAUGGCGGCGACUGUGUUCGCAGAUCGCACCAGAAGGAACAUGAGGAUCACCCAUGUGACGG [Eternabot (L1) Solution 42] (Eterna round: R97, puzzle: Exclusion 4) | – | 348 | 89.7 | – |
| UGGUGGUAGCAGGAUAUGCUUGUUGUGUAGUUUGCAGAAGGGCUAACAUGAGGAUCACCCAUGUAAGAGGUGUU [JR_E6_Sub054] (puzzle: Exclusion 6) | 339 | – | – | – |
| AGCAUGUAAGGAUAUGUAACGCGGCUUUCAUUCGCCGUCCCACAGAAGGUACAUGAGGAUCACCCAUGUGCUCC [Solaisorin] (puzzle: Exclusion 4) | 33.3 | – | – | – |
| GUGGUGACAGGAUAUACAUGAGGAUCACCCAUGUGAGGAGGAGGAGAGAGGUGAAGGAGUAGAAGGGUCAGAGA [JR_Exclu3_Sub025] (puzzle: Exclusion 3) | 91.5 | – | – | apparent KD of MS2 coat protein [2]: 102 nM; apparent KD of MS2 coat protein [3]: 106 nM |
| AAUAACAGAGGAUAUACUAUUUUAUGUGUUUGUUAUUUUAAACAUGAGGAUCACCCAUGUAGAAGGCUGAAUGA [JMF 56] (puzzle: Exclusion 2) | 25 | – | – | – |
| CCUUAGCGAGGAUAUACAUGAGGAUCACCCAUGUGAUCCUAAGGCUGAUCAAGCCUAUGUAGAAGGCGCAAAUC [salish99_ex3_r4_003] (Eterna round: R97, puzzle: Exclusion 3) | – | 180 | 442 | – |
| AGUAACAGAGGAUAUACUGUUUUAUGUAUUUAUUAUUUUAAACAUGAGGAUCACCCAUGUAGAAGGCUGAAUGA [JMF 98] (puzzle: Exclusion 2) | 22.4 | – | – | – |
| GCUCUGCGAGGAUAUACAUGAGGAUCACCCAUGUGCGAGUUACUUGUGAGGUCGGUUGGUAGAAGGCGCGGAGG [Mat - Exclusion 3 - Mod of JL D100] (puzzle: Exclusion 3) | 77.5 | – | – | – |
| UCUUAUUGAGGAUAUACAGAUUAUUACAUGAGGAUCACCCAUGUUCUUCAAUGUAUAUAUGUAGAAGGCAGAGGAA [Mat - Exclusion 5 - JL Mod - D11] (Eterna round: R97, puzzle: Exclusion 5) | – | 112 | 67.4 | – |
| GCAAGAAUAGGAUAUACACCAUGUCAGCUUCUAUACAACGCACAUGAGGAUCACCCAUGUAGAAGGGUUCUCUG [Exclusion-2-#10] (Eterna round: R97, puzzle: Exclusion 2) | – | 358 | 365 | – |
| CGAUAAAGCUGAGGAUAUGAGAAUAGAAAGAAAUCAGAAGGCAGACAUGAGGAUCACCCAUGUGAGUUCUCGAGAUUACAUGGU [Prohibition 46 - Jieux - Exclusion NG 1] (Eterna round: R96, puzzle: Exclusion NG 1) | – | – | – | apparent KD of MS2 coat protein [4]: 112 nM |
| UGCGGUAGAGGAUAUACGUAGAAUUAGGUUCAUGUAAAACUACAUGAGGAUCACCCAUGUAGAAGGCUAUCGCU [JL-ex2-4.30 Eli mod] (Eterna round: R97, puzzle: Exclusion 2) | – | 85.4 | 21.2 | – |
| GAUUGAGCUGUUAGGAUAUCCGCAGGCCGCCUGGAGGAGAAGGAACAUGAGGAUCACCCAUGUGCACGGGAGGC [Xemaesti] (Eterna round: R97, puzzle: Brourd's mod of Exclusion 4) | – | 13.4 | 15.8 | – |
| AAAUUAGCAAGUAGGUCCGACAUGAGGAUCACCCAUGUUAUCUGAAAUAACGCAGCAUGAUUGUGAGCUCGUCUUAG [Sensor-V1 #6] (Eterna round: R97, puzzle: Sensor, turn-off variant 1) | – | 80.8 | 105 | – |
| AGUAGUAGUAUCCGUUCUUACAUGAGGAUCACCCAUGUUUCUUGACGUGCACGCGAUGCUCGUCAGACUACCAGAUG [salish99_TOv1_r3_055] (puzzle: Sensor v3, turn-off variant 1) | 88.4 | – | – | apparent KD of MS2 coat protein [2]: 68.5 nM; apparent KD of MS2 coat protein [3]: 91.5 nM |
| CCUUUGUCAGGAUAUCGAAAAGGGAGGCCAAAAGCCUCCGGUGAGAAGGGACAUGAGGAUCACCCAUGUGAAAA [Usleaor] (puzzle: Exclusion 4) | 37.9 | – | – | – |

| Sequence | apparent KD of MS2 coat protein [1] [nM] | apparent KD of MS2 coat protein (input ligand: FMN 200 uM) [nM] | apparent KD of MS2 coat protein (input ligand: none) [nM] | also measured |
| --- | --- | --- | --- | --- |
| ACCAGUAUAUGGAGAUUUUACAUGAGGAUCACCCAUGUUGGGACAGCUUUUUGCUUGUCUUAUCCUACUUUGUGUGU [Design #3] (Eterna round: R97, puzzle: Sensor, turn-off variant 1) | – | 32.2 | 36 | – |
| GUCCUGGCUUUUCACAGGCACAUGAGGAUCACCCAUGUCGUGGGUAGAUCCCUCCCUGGGAAAUCUGCUCGUCUUAU [Cac Sensor turn off v1 sub12] (Eterna round: R97, puzzle: Sensor, turn-off variant 1) | – | 78.9 | 84.6 | – |
| ACGGUGGUCCGAGAACAUGAGGAUCACCCAUGUGACAAAACCAAGGAUAUAGACGGACCGCCCGACUAGAAGGUGGAAAGAAAA [Aronlema] (Eterna round: R96, puzzle: Exclusion NG 3) | – | 90.2 | 77.9 | apparent KD of MS2 coat protein [4]: 41.1 nM |
| GAAGAGACAGGAUAUACAUGAGGAUCACCCAUGUGAGUAUGUUGGAGGCGGAGGAGGUGUAGAAGGGUCAAAGA [JR_Exclu3_Sub019] (puzzle: Exclusion 3) | 20.2 | – | – | – |
| GGUGGGCUAGGAUAUGCUUUGGGCAAGCAUUCCUUCGAUAAACUUGAGGAUCACCCAAGUAGAAGGAGCUUGCC [salish99_ex2_r4_026] (Eterna round: R97, puzzle: Exclusion 2) | – | 11.5 | 10.6 | – |
| AGCUGACGAGGAUAUACAUGAGGAUCACCCAUGUAAGAUCAGCGACGAUAGUCGCAAUGUAGAAGGCGUCAGCU [E3/10-A2] (Eterna round: R97, puzzle: Exclusion 3) | – | 299 | 30.1 | – |
| AAUAAAUAGGAGGAUAUCGUAUCGGAAACGAUACGAGAAGGUCUAACAUGAGGAUCACCCAUGUUCCUCAAUAA [Mat - Exclusion 6 - Eli Mod - D45] (puzzle: Exclusion 6) | 39.4 | – | – | – |
| UAGUUAAUCACAGGAUAUCGCCUCUUAUUACAUGAGGAUCACCCAUGUUUAGUUAGUUACAUGUUCGAGAAGGGUGUUGUAGUU [JR_ExcNG2_Sub042] (Eterna round: R96, puzzle: Exclusion NG 2) | – | 714 | 579 | apparent KD of MS2 coat protein [4]: 408 nM |
| ACUCUUCUAGUUAGGAUAUGCAUCGGGCUUCCGCAGCAGAAGGAACAUGAGGAUCACCCAUGUCAAAUAAAAUC (Eterna round: R97, puzzle: Brourd's mod of Exclusion 4) | – | 34.8 | 20.6 | – |
| CGUACUAACACGAAAGUGUUAGUACAAUAAGCUUGUGAAACAUGAGGAUCACCCAUGUCCUCAUAAGCUCGUCUUAA [salish99_TOv2_r3_006] (puzzle: Sensor v3, turn-off variant 2) | 268 | – | – | apparent KD of MS2 coat protein [2]: 14.1 nM; apparent KD of MS2 coat protein [3]: 12.1 nM |
| AUAAGUAUGAAGGAUAUGCGCGAGCCAGCUUGGGCAGAAGGUUAAACAUGAGGAUCACCCAUGUGGAAAUCCGA [Eternabot (Original) Solution 34] (Eterna round: R97, puzzle: Exclusion 6) | – | 32.9 | 21.7 | – |
| CUCUCACAUGAGGAUCACCCAUGUCAGGAUAUCUCAGUGCAUCCACACGGACGCAUCAAGAGAAGGGACAAAAC [Vinxlusion 2 - Jieux - Exclusion 1] (Eterna round: R97, puzzle: Exclusion 1) | – | 95 | 59.1 | – |
| UGUGUGAGACAGGAUAUGCCGGAUGAAAUGCAGGUAGAAGGGUCUACAUGAGGAUCACCCAUGUGGCCGGUUGG [Ex6 #75] (Eterna round: R97, puzzle: Exclusion 6) | – | 18.9 | 15.1 | – |
| AGUACUAACACGAGAGUGUUAGUACUAUAAGCUUGUGUUACAUGAGGAUCACCCAUGUCCUCAUAGGCUCGUCUUAG [Mat - Sensor v3 - Turn-off var 2 - D83] (puzzle: Sensor v3, turn-off variant 2) | 42.7 | – | – | apparent KD of MS2 coat protein [2]: 80.4 nM; apparent KD of MS2 coat protein [3]: 87.3 nM |
| CAAACAAGCGAAAGAUCCCACAUGAGGAUCACCCAUGUGCUCGUCUUAUAAGGUACUGUGACGAAAGUCACGGUACC [Sensor 3, v1 - 91 v21] (Eterna round: R97, puzzle: Sensor, turn-off variant 1) | – | 38.4 | 45.3 | – |
| UGCUACAUGAGGAUCACCCAUGUUAUUUGGGAUUUUUUAGGACAGGAUAUGAUUGUAUUGUUUUUUCAGAAGGGUCAUUACUUU [JR_ExcNG3_Sub013] (Eterna round: R96, puzzle: Exclusion NG 3) | – | 368 | 347 | apparent KD of MS2 coat protein [4]: 316 nM |
| GCACGGAGUGUAGGAUAUCUGUGCGAUUAGCUCAGAGAAGGACACAUGAGGAUCACCCAUGUGUUCCACCGAAAGGUUCCGUGC [Eli exng1 - 048] (Eterna round: R96, puzzle: Exclusion NG 1) | – | 11 | 11.4 | apparent KD of MS2 coat protein [4]: 8.4 nM |
| UUAUACGUUGAGGAUAUGCGACUUUGUAUAGUUGUAGAAGGCGAUACAUGAGGAUCACCCAUGUUUAUGGGCAU [LRO-Ex6-10] (puzzle: Exclusion 6) | 186 | – | – | – |
